Assay results: patent CN106117360A

Target: CD3 on Jurkat cells
Assay: flow cytometry, culture supernatant on Jurkat cells (negative control sdAb)

MFI: 115 MFI
Substance: NC-sdAb(相同形式的非相关性sdAb) (VHH)
